Numbered stars: 1 amine (or outer) side, 2 acyl side, 3 side chain; on linkers, the order of the positions; unused ones are H or OH. Square brackets hold non-standard residues; d marks the D form. Side chains are listed from the residue outwards. Ends that are not written are not given here. * marks the point of attachment. Phe(4-CH2NH2) = NCc1ccc(C[C@H](N)C(=O)O)cc1; C18 diacid = O=C(O)CCCCCCCCCCCCCCCCC(=O)*; αMeW = C[C@](N)(Cc1c[nH]c2ccccc12)C(=O)O; γGlu = O=C(O)[C@H](CCC(=O)[*:2])N[*:1]; Met(O2) = CS(=O)(=O)CC[C@H](N)C(=O)O; αMeD = C[C@](N)(CC(=O)O)C(=O)O; αMeS = C[C@](N)(CO)C(=O)O; AEEA = NCCOCCOCC(=O)O; Aib = CC(C)(N)C(=O)O
B1: TP631 (peptide)
peptide: H[Aib]QGTFTSDYSKYLDARAAK([AEEA-AEEA-γGlu-C18 diacid])DFVQ[αMeW]L[Met(O2)]DT-NH2
modifications: N-terminus assumed
SMILES: CC(C)C[C@H](NC(=O)[C@H](Cc1ccc(O)cc1)NC(=O)[C@H](CCCCN)NC(=O)[C@H](CO)NC(=O)[C@H](Cc1ccc(O)cc1)NC(=O)[C@H](CC(=O)O)NC(=O)[C@H](CO)NC(=O)[C@@H](NC(=O)[C@H](Cc1ccccc1)NC(=O)[C@@H](NC(=O)CNC(=O)[C@H](CCC(N)=O)NC(=O)C(C)(C)NC(=O)[C@@H](N)Cc1c[nH]cn1)[C@@H](C)O)[C@@H](C)O)C(=O)N[C@@H](CC(=O)O)C(=O)N[C@@H](C)C(=O)N[C@@H](CCCNC(=N)N)C(=O)N[C@@H](C)C(=O)N[C@@H](C)C(=O)N[C@@H](CCCCNC(=O)COCCOCCNC(=O)COCCOCCNC(=O)CC[C@H](NC(=O)CCCCCCCCCCCCCCCCC(=O)O)C(=O)O)C(=O)N[C@@H](CC(=O)O)C(=O)N[C@@H](Cc1ccccc1)C(=O)N[C@H](C(=O)N[C@@H](CCC(N)=O)C(=O)N[C@@](C)(Cc1c[nH]c2ccccc12)C(=O)N[C@@H](CC(C)C)C(=O)N[C@@H](CCS(C)(=O)=O)C(=O)N[C@@H](CC(=O)O)C(=O)N[C@H](C(N)=O)[C@@H](C)O)C(C)C
B2: TP632 (peptide)
peptide: H[Aib]QGTFTSDYSKYLDARAAKDFVQ[αMeW]L[Met(O2)][αMeD]T-NH2
modifications: not fully specified (residue 20); printed as HUQGTFTSDYSKYLDARAAK(PEG2PEG2γEC18-OH)DFVQαMWL2αMDT-NH2
B3: TP633 (peptide)
peptide: H[Aib]QGTFTSDYSKYLDARAAQ[Phe(4-CH2NH2)]([AEEA-γGlu-C18 diacid])FVQWLLDT-NH2
modifications: N-terminus assumed
SMILES: CC(C)C[C@H](NC(=O)[C@H](Cc1ccc(O)cc1)NC(=O)[C@H](CCCCN)NC(=O)[C@H](CO)NC(=O)[C@H](Cc1ccc(O)cc1)NC(=O)[C@H](CC(=O)O)NC(=O)[C@H](CO)NC(=O)[C@@H](NC(=O)[C@H](Cc1ccccc1)NC(=O)[C@@H](NC(=O)CNC(=O)[C@H](CCC(N)=O)NC(=O)C(C)(C)NC(=O)[C@@H](N)Cc1c[nH]cn1)[C@@H](C)O)[C@@H](C)O)C(=O)N[C@@H](CC(=O)O)C(=O)N[C@@H](C)C(=O)N[C@@H](CCCNC(=N)N)C(=O)N[C@@H](C)C(=O)N[C@@H](C)C(=O)N[C@@H](CCC(N)=O)C(=O)N[C@@H](Cc1ccc(CNC(=O)COCCOCCNC(=O)CC[C@H](NC(=O)CCCCCCCCCCCCCCCCC(=O)O)C(=O)O)cc1)C(=O)N[C@@H](Cc1ccccc1)C(=O)N[C@H](C(=O)N[C@@H](CCC(N)=O)C(=O)N[C@@H](Cc1c[nH]c2ccccc12)C(=O)N[C@@H](CC(C)C)C(=O)N[C@@H](CC(C)C)C(=O)N[C@@H](CC(=O)O)C(=O)N[C@H](C(N)=O)[C@@H](C)O)C(C)C
B4: TP634 (peptide)
peptide: H[Aib]QGTFTSDYSKYLDARAAQ[Phe(4-CH2NH2)]([AEEA-AEEA-γGlu-C18 diacid])FVQWL[Met(O2)][αMeD]T-NH2
modifications: N-terminus assumed
SMILES: CC(C)C[C@H](NC(=O)[C@H](Cc1ccc(O)cc1)NC(=O)[C@H](CCCCN)NC(=O)[C@H](CO)NC(=O)[C@H](Cc1ccc(O)cc1)NC(=O)[C@H](CC(=O)O)NC(=O)[C@H](CO)NC(=O)[C@@H](NC(=O)[C@H](Cc1ccccc1)NC(=O)[C@@H](NC(=O)CNC(=O)[C@H](CCC(N)=O)NC(=O)C(C)(C)NC(=O)[C@@H](N)Cc1c[nH]cn1)[C@@H](C)O)[C@@H](C)O)C(=O)N[C@@H](CC(=O)O)C(=O)N[C@@H](C)C(=O)N[C@@H](CCCNC(=N)N)C(=O)N[C@@H](C)C(=O)N[C@@H](C)C(=O)N[C@@H](CCC(N)=O)C(=O)N[C@@H](Cc1ccc(CNC(=O)COCCOCCNC(=O)COCCOCCNC(=O)CC[C@H](NC(=O)CCCCCCCCCCCCCCCCC(=O)O)C(=O)O)cc1)C(=O)N[C@@H](Cc1ccccc1)C(=O)N[C@H](C(=O)N[C@@H](CCC(N)=O)C(=O)N[C@@H](Cc1c[nH]c2ccccc12)C(=O)N[C@@H](CC(C)C)C(=O)N[C@@H](CCS(C)(=O)=O)C(=O)N[C@@](C)(CC(=O)O)C(=O)N[C@H](C(N)=O)[C@@H](C)O)C(C)C
B5: TP635 (peptide)
peptide: H[Aib]QGTFTSDYSKYLDARAA[Phe(4-CH2NH2)]([AEEA-γGlu-C18 diacid])DFVQWLLDT-NH2
modifications: N-terminus assumed
SMILES: CC(C)C[C@H](NC(=O)[C@H](Cc1ccc(O)cc1)NC(=O)[C@H](CCCCN)NC(=O)[C@H](CO)NC(=O)[C@H](Cc1ccc(O)cc1)NC(=O)[C@H](CC(=O)O)NC(=O)[C@H](CO)NC(=O)[C@@H](NC(=O)[C@H](Cc1ccccc1)NC(=O)[C@@H](NC(=O)CNC(=O)[C@H](CCC(N)=O)NC(=O)C(C)(C)NC(=O)[C@@H](N)Cc1c[nH]cn1)[C@@H](C)O)[C@@H](C)O)C(=O)N[C@@H](CC(=O)O)C(=O)N[C@@H](C)C(=O)N[C@@H](CCCNC(=N)N)C(=O)N[C@@H](C)C(=O)N[C@@H](C)C(=O)N[C@@H](Cc1ccc(CNC(=O)COCCOCCNC(=O)CC[C@H](NC(=O)CCCCCCCCCCCCCCCCC(=O)O)C(=O)O)cc1)C(=O)N[C@@H](CC(=O)O)C(=O)N[C@@H](Cc1ccccc1)C(=O)N[C@H](C(=O)N[C@@H](CCC(N)=O)C(=O)N[C@@H](Cc1c[nH]c2ccccc12)C(=O)N[C@@H](CC(C)C)C(=O)N[C@@H](CC(C)C)C(=O)N[C@@H](CC(=O)O)C(=O)N[C@H](C(N)=O)[C@@H](C)O)C(C)C

Target: human Glucagon receptor (GCGR) (human, UniProt P47871 26-477)
Assay: cell-based or functional assay

Sequence of human Glucagon receptor (GCGR) (P47871 26-477): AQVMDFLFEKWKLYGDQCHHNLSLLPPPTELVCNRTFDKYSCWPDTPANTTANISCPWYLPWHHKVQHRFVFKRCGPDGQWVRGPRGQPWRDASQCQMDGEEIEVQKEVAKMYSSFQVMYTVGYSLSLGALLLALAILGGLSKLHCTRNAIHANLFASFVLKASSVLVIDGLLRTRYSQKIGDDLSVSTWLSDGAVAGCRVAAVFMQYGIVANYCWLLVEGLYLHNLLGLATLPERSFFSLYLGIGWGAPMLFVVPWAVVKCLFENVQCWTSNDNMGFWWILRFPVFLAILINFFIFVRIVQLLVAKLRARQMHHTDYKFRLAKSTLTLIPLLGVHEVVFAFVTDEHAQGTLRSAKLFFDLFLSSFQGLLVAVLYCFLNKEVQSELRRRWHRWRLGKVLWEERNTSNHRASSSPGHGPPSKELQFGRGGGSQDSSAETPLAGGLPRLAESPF

Binder | GCGR EC50 human [nM]
H[Aib]QGTFTSDYSKYLDARAAK([AEEA-AEEA-γGlu-C20‑OH])DFVQWL[Met(O2)][αMeD]T-NH2 [TP565] | 5.42
H[dS]QGTFTSDYSKYLD[Aib]RAAK([AEEA-AEEA-γGlu-C20‑OH])DFVQWL[Met(O2)]DT-NH2 [TP578] | 0.604
B1 | 1.65
B2 | 5.9
B3 | 0.12
B4 | 0.77
B5 | 0.46

Target: human GLP-1 receptor (GLP1R) (human, UniProt P43220 24-463)
Assay: cell-based or functional assay

Binder | GLP1R EC50 human [nM]
H[Aib]QGTFTSDYSKYLDARAAK([AEEA-AEEA-γGlu-C20‑OH])DFVQWL[Met(O2)][αMeD]T-NH2 [TP565] | 2.26
H[dS]QGTFTSDYSKYLD[Aib]RAAK([AEEA-AEEA-γGlu-C20‑OH])DFVQWL[Met(O2)]DT-NH2 [TP578] | 4.95
B1 | 1.32
B2 | 6.6
B3 | 0.19
B4 | 0.49
B5 | 2.13
H[αMeS]QGTFTSDYSKYLD[Aib]RAAK([AEEA-AEEA-γGlu-C20‑OH])DFVQWL[Met(O2)]DT-NH2 [TP592] | 2.42
H[αMeS]QGTFTSDYSKYLD[Aib]RAAK([AEEA-AEEA-γGlu-C20‑OH])DFVQWL[Met(O2)]DT-NH2 [TP593] | 4.95
